From patent publication US20080167229 come the findings set out here.

Substitutions are numbered along the chain they refer to. Where two headings read alike, the source gives them in different places.

In data set [1] the target is Flag-HA-tagged UAF1, expressed in and purified from HeLa cells.
Data set [2] addresses Ubiquitin-Vinyl Sulfone (U-202; Boston Biochem).
Data set [3] has as its target monoubiquitinated Flag-HA-tagged FANCD2 protein purified from hydroxyurea-treated HeLa cells, Q9BXW9.
For data set [4], the target named is T1, Ubiquitin-7-amido-4-methylcoumarin (U-550; Boston Biochem).
The target in data set [5] is T1, Ubiquitin-7-amido-4-methylcoumarin …. Kind of data set: Ub-AMC hydrolysis at 2 nM USP1/UAF1 complex, Lineweaver-Burk plot; standard deviation in brackets.
Data set [6] shares this target. Briefly: Ub-AMC hydrolysis at 20 nM USP1, Lineweaver-Burk plot; standard deviation in brackets.
Data set [7] concerns the target UAF1 with engineered C-terminal Strep II tag, purified from Sf9 cells.
Data set [8] concerns the target Strep-tagged UAF1-ΔWD2 purified from Sf9 insect cells.

B1: N-terminal cleavage product of c-Myc-tagged USP1 (rabbit reticulocyte lysate) (protein)
chain: MPGVIPSESNGLSRGSPSKKNRLSLKFFQKKETKRALDFTDSQENEEKASEYRASEIDQVVPAAQSSPINCEKRENLLPFVGLNNLGNTCYLNSILQVLYFCPGFKSGVKHLFNIISRKKEALKDEANQKDKGNCKEDSLASYELICSLQSLIISVEQLQASFLLNPEKYTDELATQPRRLLNTLRELNPMYEGYLQHDAQEVLQCILGNIQETCQLLKKEEVKNVAELPTKVEEIPHPKEEMNGINSIEMDSMRHSEDFKEKLPKGNGKRKSDTEFGNMKKKVKLSKEHQSLEENQRQTRSKRKATSDTLESPPKIIPKYISENESPRPSQKKSRVKINWLKSATKQPSILSKFCSLGKITTNQGVKGQSKENECDPEEDLGKCESDNTTNGCGLESPGNTVTPVNVNEVKPINKGEEQIGFELVEKLFQGQLVLRTRCLECESLTERREDFQDISVPVQEDELSKVEESSEISPEPKTEMKTLRWAISQFASVERIVGEDKYFCENCHHYTEAERSLLFDKMPEVITIHLKCFAASGLEFDCYGGGLSKINTPLLTPLKLSLEEWSTKPTNDSYGLFAVVMHSGITISSGHYTASVKVTDLNSLELDKGNFVVDQMCEIGKPEPLNEEEARGVVENYNDEEVSIRVGGNTQPSKVLNKKNVEAIGLLGG
As to B1, the “amount of the N-terminal cleavage product of c-Myc-USP1 after cycloheximide in reticulocyte lysate (anti-c-Myc immunoblot)” value in data set [1] is “the e-USP1-N-Term. band (about 97 kDa) stays faint from 0 min to 2h in Control and grows stronger from 0 min to 2h with + UAF1”. Moreover, the “mobility shift in SDS-PAGE with Ub-VS” value in data set [2] is “there was a shift of both the full length USP1 and the N-terminal cleavage product in the presence of Ub-VS”.

B2: c-Myc-tagged USP1 synthesized in rabbit reticulocyte lysate (protein)
chain: MPGVIPSESNGLSRGSPSKKNRLSLKFFQKKETKRALDFTDSQENEEKASEYRASEIDQVVPAAQSSPINCEKRENLLPFVGLNNLGNTCYLNSILQVLYFCPGFKSGVKHLFNIISRKKEALKDEANQKDKGNCKEDSLASYELICSLQSLIISVEQLQASFLLNPEKYTDELATQPRRLLNTLRELNPMYEGYLQHDAQEVLQCILGNIQETCQLLKKEEVKNVAELPTKVEEIPHPKEEMNGINSIEMDSMRHSEDFKEKLPKGNGKRKSDTEFGNMKKKVKLSKEHQSLEENQRQTRSKRKATSDTLESPPKIIPKYISENESPRPSQKKSRVKINWLKSATKQPSILSKFCSLGKITTNQGVKGQSKENECDPEEDLGKCESDNTTNGCGLESPGNTVTPVNVNEVKPINKGEEQIGFELVEKLFQGQLVLRTRCLECESLTERREDFQDISVPVQEDELSKVEESSEISPEPKTEMKTLRWAISQFASVERIVGEDKYFCENCHHYTEAERSLLFDKMPEVITIHLKCFAASGLEFDCYGGGLSKINTPLLTPLKLSLEEWSTKPTNDSYGLFAVVMHSGITISSGHYTASVKVTDLNSLELDKGNFVVDQMCEIGKPEPLNEEEARGVVENYNDEEVSIRVGGNTQPSKVLNKKNVEAIGLLGGQKSKADYELYNKASNPDKVASTAFAENRNSETSDTTGTHESDRNKESSDQTGINISGFENKISYVVQSLKEYEGKWLLFDDSEVKVTEEKDFLNSLSPSTSPTSTPYLLFYKKL
Take B2: the “mobility shift in SDS-PAGE with Ub-VS” value in data set [2] was “there was a shift of both the full length USP1 and the N-terminal cleavage product in the presence of Ub-VS”.

B3: USP1/UAF1 complex (heterodimer) co-expressed in and purified from Sf9 cells, Example 1 (protein)
chain 1: B2 chain with G670A, G671A
chain 2: not shown
The Km is the substrate concentration at which the rate is half of its maximum. A word on the kcat: it is the maximal rate divided by the concentration of active sites. Turning to B3, the “in vitro deubiquitination of Ub-FANCD2” value in data set [3] is “the UAF11USP1 complex readily deubiquitinated the substrate; about half of the substrate was deubiquitinated”. Further, in data set [4], the Km entry was “decreasing the Km from 1.4 µM to 0.7 µM”; the “Ub-AMC cleavage, fluorescence against time, 10 nM protein” value was “rises steeply from about 350 at 0 min to a plateau of about 2000 reached at about 15 min”; the kcat stood at 0.26 s⁻¹; the “rate of Ub-AMC conversion V (nM/s) against [S] (µM), 2 nM USP1/UAF1 complex” value was “V rises from about 0.19 nM/s at about 0.4 µM to about 0.43 nM/s at 3 µM; the fitted curve flattens but still rises, no plateau”. The Km in data set [5] is 0.7 µM.

B4: native USP1 complex purified from HeLa nuclear extract (protein)
chain 1: B2 chain
chain 2: not shown
For B4, the “in vitro deubiquitination of Ub-FANCD2” value in data set [3] is listed as “the USP1 complex could support this reaction”. In addition, in data set [2], the “mobility shift in SDS-PAGE with Ub-VS” value is “a mobility shift of both full length and the N-terminal cleavage product of USP1 was observed, demonstrating enzymatic activity of both polypeptides”.

B5: USP1 with N-terminal His tag, amino acids 670-71 changed from GG to AA (non-cleavable), purified from Sf9 cells (protein)
chain: B2 chain with G670A, G671A
For the protein B5, the Km in data set [6] was found to be 1.4 µM. Also, the “in vitro deubiquitination of Ub-FANCD2” value in data set [3] is “USP1 protein alone was unable to deubiquitinate Ub-FANCD2”. Moreover, in data set [7], the “Ub-AMC cleavage by 2 nM USP1, fluorescence against time, 2 nM UAF1 or buffer added during the run” value is “both traces run together from about 130 to about 165 until about 12 min; then + UAF1 steps to about 245 and rises at once in a straight line beyond 500 at about 23 min, while Control steps to about 185 and reaches only about 215 at 25 min”; the “Ub-AMC cleavage by 10 nM USP1, fluorescence against time, 10 nM UAF1 added during the run” value is “the grey trace USP1 + UAF1 runs with the USP1 traces from about 120 to about 200 until about 12 min, then steps to about 310 and rises in a straight line to about 1200 at about 23 min”; the “kcat on Ub-AMC, UAF1/USP1 complex against USP1 alone” value was “augmenting the kcat value 18-fold”; the “kcat/Km on Ub-AMC, UAF1/USP1 complex against USP1 alone” value is recorded as “the kcat/Km is 35-fold higher for the UAF1/USP1 complex compared to USP1 alone”. Also, the “substrate turnover of Ubiquitin-AMC after adding UAF1 in an equimolar amount to USP1” value in data set [7] is “Addition of UAF1 resulted in an instantaneous and robust increase of substrate turnover”. In addition, the “Ub-AMC cleavage by 10 nM USP1, fluorescence against time, 10 nM UAF1-ΔWD2 added during the run” value in data set [8] was “no stimulation: the two dark traces (USP1 and USP1 + UAF1-ΔWD2) lie on one another, step to about 240 at about 12 min and keep their slope, reaching about 300 at about 23 min”. In data set [4], the Km result is “decreasing the Km from 1.4 µM to 0.7 µM”; the “Ub-AMC cleavage, fluorescence against time, 10 nM USP1 alone” value is reported as “slow rise from about 120 at 0 min to about 300 at about 23 min, on one line with USP1 + UAF1-ΔWD2”; the “Ub-AMC cleavage, fluorescence against time, 10 nM protein” value was “rises slowly and almost linearly from about 130 at 0 min to about 400 at 40 min”; the kcat is 0.014 s⁻¹. Also, the “rate of Ub-AMC conversion V (nM/s) against [S] (µM), 20 nM USP1” value in data set [4] is “V rises from about 0.09 nM/s at 0.6 µM to about 0.2 nM/s at 3 µM; the fitted curve still rises, no plateau”.
